# Reference: US20250171520A1 (Regeneron, published 2025)
# B1: H2M12450N (antibody, V domains shown)
# VH: QVQLQESGPKVVKPSETLSLTCTVSGGSISSYYWNWIRQSPGKGLEWIGYTKRGYTDYNPSLRSRVTISEDTSKNQFSLRISSVTAADTAVYYCAQMGWGSHAFDMWGQGTMVAVSS
# VL: EIVLTQSPGTLSLSPGERATLSCRASQSVNSRYLAWYQQKPGQAPRLLIYGASSRATGIPDRCSGSGSGTDFTLTISRLEPEDFAVYYCQQYGSSPWTFGQGTKVEIK
# notes: also called anti-CD63 antibody
# B2: H1M12451N (antibody, V domains shown)
# VH: QVQLQESGPGLMKPSETLSLTCTVSGGSFSSYYWNWIRQSPGKGLEWIGYIRYSGDTNYKPSLKSRFTISIDTSKNLFSLRLKSVTAADTAVYYCARMGLGSDAFDIWGQGTMVTVSS
# VL: EIVLTQSPGTLSLSPGERATLSCRASQSVNNNYLAWYQQKPGQAPRLLIYGVFNRATNIPDRFSGSGSGTDFTLTISRLEPEDFAVYYCQQYGSSPWTFGQGTKVEIK
# notes: This one was detected or captured with anti-mouse Fc reagents; also called HIM12451; anti-CD63 antibody
# B3: H2M12395N (antibody, V domains shown)
# VH: QVQLQESGPRLVKPSETLSLTCIVSGGSISNFYWNWIRQSPGKGLEWIGYFFYTGTIDYNPSLKSRVTISLDTSKNQFSLNLRLLTAADAAVYYCARMGLGANAFDIWGHGTMVTVSS
# VL: EIVLTQSPGTLSLSPGERATLSCRASQHVSSNYLAWYQQKPGQAPRLLIYGGSSRATGIPDRFSGSGSGTDFTLTISRLEPADFAVFYCQQYGNSPWTFGQGTKVEMK
# notes: as for B1
# B4: H4H12450N (antibody, V domains shown)
# VH: QVQLQESGPKVVKPSETLSLTCTVSGGSISSYYWNWIRQSPGKGLEWIGYTKRGYTDYNPSLRSRVTISEDTSKNQFSLRISSVTAADTAVYYCAQMGWGSHAFDMWGQGTMVAVSS
# VL: not shown
# notes: as for B1
# Key:
# human CD63 [1] = target: T1, human CD63 (human, UniProt P08962 2-238); test: flow cytometry, HEK293 cells endogenously expressing human CD63
# T1 construct: also called hCD63
# T1 sequence: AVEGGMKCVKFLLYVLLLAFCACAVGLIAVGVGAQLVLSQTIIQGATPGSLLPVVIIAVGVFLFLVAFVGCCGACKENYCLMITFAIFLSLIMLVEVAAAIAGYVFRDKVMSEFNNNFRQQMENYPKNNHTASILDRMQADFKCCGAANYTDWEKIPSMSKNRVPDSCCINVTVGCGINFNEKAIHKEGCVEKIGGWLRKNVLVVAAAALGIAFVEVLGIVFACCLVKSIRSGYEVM
# Description: Relative cell surface binding of the anti-CD63 antibodies to human CD63 expressing cells was accessed via flow cytometry using CD63 positive HEK293 cells (ATCC, Cat #CRL-1573), which endogenously express human CD63, and CD63 negative HEK293/CD63 knock out cells. For the assay, cells were plated in PBS without calcium and magnesium (VWR, Cat #45000-446), containing 2% FBS (Saradigm Cat #1500-500) (Staining Buffer) in 96 well V-bottom plates (Axygen Scientific, Cat #P-96-450-V-C-S). Cells were then incubated with anti-CD63 antibodies or isotype control antibodies at concentrations ranging from 100 nM to 1.7 pM for 30 minutes on ice. Wells containing no antibody were used as controls. HEK293/CD63KO cells were stained with only the highest concentration (100 nM) of the antibodies. […] Cells were then washed and fixed using a 50% solution of Cytofix (BD Biosciences, Cat #554655) diluted in PBS. Samples were run on the Intellicyte Hypercyt flow cytometer and results were analyzed in ForeCyt software (Intellicyte) to calculate the mean fluorescent intensity (MFI). Measured values were analyzed using a four parameter logistic equation over a 12-point response curve using GraphPad Prism and the resulting EC₅₀ values are reported (Table 12). The signal to noise ratio (S/N) was determined by calculating the ratio of the anti-CD63 antibodies or the control antibodies MFI to the wells containing no antibodies (Table 12).
# [2] = target: T2, recombinant human CD63 extracellular loop 2 expressed with a C-terminal Myc-Myc-hexahistidine (human); test: SPR (Biacore), captured mAb, 25°C
# T2 construct: also called hCD63 EC loop 2-MMH; human CD63 EC loop2-MMH
# Description: (§1) Equilibrium dissociation constants (KD) for different CD63loop reagents binding to purified anti-CD63 monoclonal antibodies were determined using a real-time surface plasmon resonance based Biacore T200 biosensor or Biacore 2000 biosensor. All binding studies were performed in 10 mM HEPES, 150 mM NaCl, 3 mM EDTA, and 0.05% v/v Surfactant Tween-20, pH 7.4 (HBS-ET) running buffer at 25° C. and 37° C. The Biacore CM5 sensor chip surface was first derivatized by amine coupling with either a rabbit anti-mouse Fc specific polyclonal antibody (GE Healthcare, Cat #BR100838) or an anti-human Fab kit (GE Healthcare, Cat #28958325) to capture anti-CD63 monoclonal antibodies. Binding studies were performed on either recombinant human CD63 extracellular loop 2 expressed with a C-terminal Myc-Myc-hexahistidine (hCD63 EC loop 2-MMH; SEQ ID NO:80) or recombinant human CD63 extracellular loop 2 expressed with a C-terminal human Fc tag (hCD63 EC loop 2-hFc; SEQ ID NO:81). Different concentrations of hCD63 EC loop 2-MMH or hCD63 EC loop 2-hFc (either tested at 50 nM-12.5 nM in a 4-fold dilution or at 90 nM-0.37 nM in 3-fold serial dilutions) were first prepared in HBS-ET running buffer and were injected over the anti-mouse Fc captured anti-CD63 monoclonal antibody surface for 4 minutes at a flow rate of […] or 50 μL/minute, while the dissociation of monoclonal antibody bound CD63 reagent was monitored for 8 or 10 minutes in HBS-ET running buffer. The association rate (kₐ) and dissociation rate (kd) were determined by fitting the real-time binding sensorgrams to a 1:1 binding model with mass transport limitation using Scrubber 2.0c curve-fitting software. Binding dissociation equilibrium constant (KD) and dissociative half-life (t½) were calculated from the kinetic rates as: […]
# (§2) Binding kinetics parameters for human CD63 EC loop 2 protein binding to different anti-CD63 monoclonal antibodies of the invention at 25° C. and 37° C. are shown in Tables 15 through 18.
# [3] = target: T3, recombinant human CD63 extracellular loop 2 expressed with a C-terminal human Fc tag (human); test: SPR (Biacore), captured mAb, 25°C
# T3 construct: also called hCD63 EC loop 2-hFc; human CD63 EC loop2-hFC
# Description: as §1, §2
# human CD63 [4] = target: T1, human CD63; test: cell-based or functional assay
# [5] = target: T2, recombinant human CD63 extracellular …; test: SPR (Biacore), captured mAb, 37°C
# Description: as §1, §2
# [6] = target: T3, recombinant human CD63 extracellular …; test: SPR (Biacore), captured mAb, 37°C
# Description: as §1, §2
# human CD63 [7] = target: T1, human CD63; test: ECL cell binding, NIH3T3/hCD63 cells
# Description: (§3) LNCAP cells were determined to have a lower human CD63 copy number than U87MG cells. Non-transfected NIH3T3 cells, which have no detectable expression of human CD63 by fluorescence activated cell sorting (FACS), were included as a negative control.
# (§4) Briefly, cell lines were rinsed once in PBS buffer without Ca²⁺/Mg²⁺ and incubated for 10 minutes at 37° C. with Enzyme Free Cell Dissociation Solution (Millipore, Cat #S-004-C) to detach the cells. Cells were then washed once with PBS with Ca²⁺/Mg²⁺ and counted with a Cellometer™ Auto T4 cell counter (Nexcelom Bioscience, LLC). Approximately 2.0×10⁴ NIH3T3/hCD63, LNCAP, U87MG or NIH3T3 cells were seeded separately onto 96-well carbon electrode plates (Meso Scale Discovery, Cat #L15XB-6) and were then incubated for one hour at 37° C. Nonspecific binding sites were blocked with 2% BSA (w/v) in PBS with Ca²⁺/Mg²⁺ for one hour at room temperature (RT). Solutions containing anti-CD63 antibodies or isotype control antibodies at a range of concentrations (1.7 pM to 100nM) in 0.5% BSA (w/v) in PBS with Ca²⁺/Mg²⁺, as well as control buffer alone, were then added in duplicate to the plate-bound NIH3T3/hCD63, LNCAP, U87MG or NIH3T3 cells and incubated for one hour at RT. Plates were subsequently washed to remove unbound antibodies using an AquaMax2000 plate washer with a cell washing head (MDS Analytical Technologies). […] Plates were washed and then incubated with Read Buffer (MSD, Cat #R92TD-2) according to the manufacturer's instructions. Luminescent signals were measured using a SECTOR Imager (MSD). Luminescence intensity, measured in relative light units (RLU), was recorded to indicate the binding intensity of each antibody at the range of concentrations tested. The ratio of signal detected with 3.7 nM antibody binding to human CD63 expressing cells compared to the same concentration of antibody binding to negative cells was reported as an indication of specificity of CD63 binding.
# human CD63 [8] = target: T1, human CD63; test: ECL cell binding, LNCAP cells
# Description: as §3, §4
# human CD63 [9] = target: T1, human CD63; test: ECL cell binding, U87MG cells
# Description: as §3, §4
# T2 sequence (chain, as listed by the source limits assumed): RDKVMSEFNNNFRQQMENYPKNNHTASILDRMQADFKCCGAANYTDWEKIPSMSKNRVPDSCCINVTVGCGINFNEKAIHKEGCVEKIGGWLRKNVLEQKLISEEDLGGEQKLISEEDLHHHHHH
# T3 sequence (chain, as listed by the source limits assumed): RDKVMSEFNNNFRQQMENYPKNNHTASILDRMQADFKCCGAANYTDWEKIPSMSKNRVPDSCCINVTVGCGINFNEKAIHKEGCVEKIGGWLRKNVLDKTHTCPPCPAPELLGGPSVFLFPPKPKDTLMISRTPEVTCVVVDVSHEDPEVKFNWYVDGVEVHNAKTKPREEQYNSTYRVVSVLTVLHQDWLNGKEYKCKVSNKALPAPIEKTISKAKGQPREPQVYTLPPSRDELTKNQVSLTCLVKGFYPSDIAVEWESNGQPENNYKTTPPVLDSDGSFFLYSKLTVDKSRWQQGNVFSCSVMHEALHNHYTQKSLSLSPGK
Binder,"HEK293 (S/N), MFI of antibody over wells with no antibody (human CD63 [1])",50 nM or 90 nM Ag Bound (RU) [2] [RU],t½ [2] [min],50 nM Ag Bound (RU) [3] [RU],t½ [3] [min],"T47D (nM) IC50, indirect cytotoxicity with anti-mFc Fab-MMAF (human CD63 [4]) [nM]",50 nM Ag Bound (RU) [5] [RU],t½ [5] [min],50 nM Ag Bound (RU) [6] [RU],t½ [6] [min],EC50 (human CD63 [7]) [nM],ratio at 3.7 nM Ab of cell binding signal (RLU) to human CD63 cells relative to negative NIH3T3 (human CD63 [7]) [fold],EC50 (human CD63 [8]) [nM],ratio at 3.7 nM Ab of cell binding signal (RLU) to human CD63 cells relative to negative NIH3T3 (human CD63 [8]) [fold],ratio at 3.7 nM Ab of cell binding signal (RLU) to human CD63 cells relative to negative NIH3T3 (human CD63 [9]) [fold],EC50 (human CD63 [9]) [nM],Kd [2] [nM],koff [2] [s⁻¹],kon [2] [M⁻¹ s⁻¹]
B1,26.7,65,41,134,248,0.24,58,57,138,236,0.28,230,0.21,20,175,,,,
B2,31.6,52,27,107,138,,44,6,118,35,0.57,91,1.7,7,52,0.95,,,
B3,21,42,6,117,23,,31,1,123,6,0.29,256,0.35,18,171,0.79,,,
B4,,24,157,,,,,,,,,,,,,,0.53,7.37e-05,139000
